Marks after values point to notes of the source that are not given here.
Experiments:
Type in all cases: physicochemical
[1] = Sodium ascorbate concentration optimization: radio-TLC purity; conditions: 25° C.
Protocol: (§1) The mixture was kept at room temperature (25° C.). At different time points, radioactive components of the formulated dose were measured by radio-TLC as described in the table below: […]

[2] = Control formulation without excipient (WFI): radio-TLC purity; conditions: 0.02 mCi/ml; for free Actinium / fragments: 25° C.; for Percentage of ^225Ac present in [^225Ac]Ac-DOTA-TATE: pH 6.13, 25° C.
Protocol: The mixture was kept at room temperature (25° C.). At different time points, purity of [^225Ac]Ac-DOTA-TATE in the formulated dose were measured by radio-TLC as described in the table below: […]

[3] = Dextran ratio optimization: radio-TLC purity; conditions: 25 μCi/ml
Protocol: as §1

Substance: (2,2′,2″-(10-(2-4(R)-1-(((4R,7S,10S,13R,16S,19R)-13-((1H-indol-3-yl)methyl)-10-(4-aminobutyl)-4-(((1S,2R)-1-carboxy-2-hydroxypropyl)carbamoyl)-16-(4-hydroxybenzyl)-7-((R)-1-hydroxyethyl)-6,9,12,15,18-pentaoxo-1,2-dithia-5,8,11,14,17-pentaazacycloicosan-19-yl)amino)-1-oxo-3-phenylpropan-2-yl)amino)-2-oxoethyl)-1,4,7,10-tetraazacyclododecane-1,4,7-triyl)triacetate; actinium-225(3+)) [[^225Ac]Ac-DOTA-TATE]
- Percentage of ^225Ac present in [^225Ac]Ac-DOTA-TATE ([1]; sodium ascorbate 1 mM, 0 hour, Radioactivity concentration at 1 mCi/ml): 99.76%
- Percentage of ^225Ac present in [^225Ac]Ac-DOTA-TATE ([1]; sodium ascorbate 1 mM, 24 hours, Radioactivity concentration at 1 mCi/ml): 91.11%
- Percentage of ^225Ac present in [^225Ac]Ac-DOTA-TATE ([1]; sodium ascorbate 1 mM, 48 hours, Radioactivity concentration at 1 mCi/ml): 52.06%
- Percentage of ^225Ac present in [^225Ac]Ac-DOTA-TATE ([1]; sodium ascorbate 10 mM, 0 hour, Radioactivity concentration at 1 mCi/ml): 99.78%
- Percentage of ^225Ac present in [^225Ac]Ac-DOTA-TATE ([1]; sodium ascorbate 10 mM, 24 hours, Radioactivity concentration at 1 mCi/ml): 92.21%
- Percentage of ^225Ac present in [^225Ac]Ac-DOTA-TATE ([1]; sodium ascorbate 10 mM, 48 hours, Radioactivity concentration at 1 mCi/ml): 86.11%
- Percentage of ^225Ac present in [^225Ac]Ac-DOTA-TATE ([1]; sodium ascorbate 100 mM, 0 hour, 0.02 mCi/ml, 0.05 mg/ml DTPA): 99.15%
- Percentage of ^225Ac present in [^225Ac]Ac-DOTA-TATE ([1]; sodium ascorbate 100 mM, 24 hours, 0.02 mCi/ml, 0.05 mg/ml DTPA): 98.76%
- Percentage of ^225Ac present in [^225Ac]Ac-DOTA-TATE ([1]; sodium ascorbate 100 mM, 48 hours, 0.02 mCi/ml, 0.05 mg/ml DTPA): 96.94%
- Percentage of ^225Ac present in [^225Ac]Ac-DOTA-TATE ([1]; sodium ascorbate 100 mM, 72 hours, 0.02 mCi/ml, 0.05 mg/ml DTPA): 96.16%
- Percentage of ^225Ac present in [^225Ac]Ac-DOTA-TATE ([1]; sodium ascorbate 100 mM, 96 hours, 0.02 mCi/ml, 0.05 mg/ml DTPA): 95.84%
- Percentage of ^225Ac present in [^225Ac]Ac-DOTA-TATE ([1]; sodium ascorbate 100 mM, 120 hours, 0.02 mCi/ml, 0.05 mg/ml DTPA): 95.44%
- Percentage of ^225Ac present in [^225Ac]Ac-DOTA-TATE ([1]; sodium ascorbate 100 mM, 144 hours, 0.02 mCi/ml, 0.05 mg/ml DTPA): 95.34%
- Percentage of ^225Ac present in [^225Ac]Ac-DOTA-TATE ([1]; sodium ascorbate 200 mM, 0 hour, 0.02 mCi/ml, 0.05 mg/ml DTPA): 99.22%
- Percentage of ^225Ac present in [^225Ac]Ac-DOTA-TATE ([1]; sodium ascorbate 200 mM, 24 hours, 0.02 mCi/ml, 0.05 mg/ml DTPA): 98.16%
- Percentage of ^225Ac present in [^225Ac]Ac-DOTA-TATE ([1]; sodium ascorbate 200 mM, 48 hours, 0.02 mCi/ml, 0.05 mg/ml DTPA): 97.12%
- Percentage of ^225Ac present in [^225Ac]Ac-DOTA-TATE ([1]; sodium ascorbate 200 mM, 72 hours, 0.02 mCi/ml, 0.05 mg/ml DTPA): 95.63%
- Percentage of ^225Ac present in [^225Ac]Ac-DOTA-TATE ([1]; sodium ascorbate 200 mM, 96 hours, 0.02 mCi/ml, 0.05 mg/ml DTPA): 95.51%
- Percentage of ^225Ac present in [^225Ac]Ac-DOTA-TATE ([1]; sodium ascorbate 200 mM, 120 hours, 0.02 mCi/ml, 0.05 mg/ml DTPA): 94.38%
- Percentage of ^225Ac present in [^225Ac]Ac-DOTA-TATE ([1]; sodium ascorbate 200 mM, 144 hours, 0.02 mCi/ml, 0.05 mg/ml DTPA): 91.27%
- free Actinium ([2]; 0 hour): 0.5% free Actinium
- Percentage of ^225Ac present in [^225Ac]Ac-DOTA-TATE ([2]; 0 hour): 99.5%
- fragments ([2]; 24 hours): 3.2%
- free Actinium ([2]; 24 hours): 2.0%
- Percentage of ^225Ac present in [^225Ac]Ac-DOTA-TATE ([2]; 24 hours): 94.8%
- fragments ([2]; 48 hours): 4.8%
- free Actinium ([2]; 48 hours): 3.5%
- Percentage of ^225Ac present in [^225Ac]Ac-DOTA-TATE ([2]; 48 hours): 91.8%
- fragments ([2]; 72 hours): 7.7%
- free Actinium ([2]; 72 hours): 8.8%
- Percentage of ^225Ac present in [^225Ac]Ac-DOTA-TATE ([2]; 72 hours): 83.5%
- fragments ([2]; 96 hours): 11.8%
- free Actinium ([2]; 96 hours): 9.2%
- Percentage of ^225Ac present in [^225Ac]Ac-DOTA-TATE ([2]; 96 hours): 79.1%
- Percentage of ^225Ac present in [^225Ac]Ac-DOTA-TATE ([3]; Dextran 0% w/w, 0 hour, 100 mM sodium ascorbate, 0.05 mg/ml DTPA, saline, pH 5.80, 25° C.): 99.90%
- Percentage of ^225Ac present in [^225Ac]Ac-DOTA-TATE ([3]; Dextran 0% w/w, 24 hours, 100 mM sodium ascorbate, 0.05 mg/ml DTPA, saline, pH 5.80, 25° C.): 99.42%
- Percentage of ^225Ac present in [^225Ac]Ac-DOTA-TATE ([3]; Dextran 0% w/w, 48 hours, 100 mM sodium ascorbate, 0.05 mg/ml DTPA, saline, pH 5.80, 25° C.): 98.73%
- Percentage of ^225Ac present in [^225Ac]Ac-DOTA-TATE ([3]; Dextran 0% w/w, 72 hours, 100 mM sodium ascorbate, 0.05 mg/ml DTPA, saline, pH 5.80, 25° C.): 97.77%
- Percentage of ^225Ac present in [^225Ac]Ac-DOTA-TATE ([3]; Dextran 0% w/w, 96 hours, 100 mM sodium ascorbate, 0.05 mg/ml DTPA, saline, pH 5.80, 25° C.): 97.13%
- Percentage of ^225Ac present in [^225Ac]Ac-DOTA-TATE ([3]; Dextran 0% w/w, 120 hours, non-homogeneous sampling, 100 mM sodium ascorbate, 0.05 mg/ml DTPA, saline, pH 5.80, 25° C.): 98.09* %
- Percentage of ^225Ac present in [^225Ac]Ac-DOTA-TATE ([3]; Dextran 0% w/w, 144 hours, 100 mM sodium ascorbate, 0.05 mg/ml DTPA, saline, pH 5.80, 25° C.): 94.64%
- Percentage of ^225Ac present in [^225Ac]Ac-DOTA-TATE ([3]; Dextran 3% w/w, 0 hour, 100 mM sodium ascorbate, 0.05 mg/ml DTPA, saline, pH 5.80, 25° C.): 99.86%
- Percentage of ^225Ac present in [^225Ac]Ac-DOTA-TATE ([3]; Dextran 3% w/w, 24 hours, 100 mM sodium ascorbate, 0.05 mg/ml DTPA, saline, pH 5.80, 25° C.): 98.62%
- Percentage of ^225Ac present in [^225Ac]Ac-DOTA-TATE ([3]; Dextran 3% w/w, 48 hours, 100 mM sodium ascorbate, 0.05 mg/ml DTPA, saline, pH 5.80, 25° C.): 98.48%
- Percentage of ^225Ac present in [^225Ac]Ac-DOTA-TATE ([3]; Dextran 3% w/w, 72 hours, 100 mM sodium ascorbate, 0.05 mg/ml DTPA, saline, pH 5.80, 25° C.): 97.91%
- Percentage of ^225Ac present in [^225Ac]Ac-DOTA-TATE ([3]; Dextran 3% w/w, 96 hours, 100 mM sodium ascorbate, 0.05 mg/ml DTPA, saline, pH 5.80, 25° C.): 96.48%
- Percentage of ^225Ac present in [^225Ac]Ac-DOTA-TATE ([3]; Dextran 3% w/w, 120 hours, 100 mM sodium ascorbate, 0.05 mg/ml DTPA, saline, pH 5.80, 25° C.): 96.67%
- Percentage of ^225Ac present in [^225Ac]Ac-DOTA-TATE ([3]; Dextran 3% w/w, 144 hours, 100 mM sodium ascorbate, 0.05 mg/ml DTPA, saline, pH 5.80, 25° C.): 95.77%
- Percentage of ^225Ac present in [^225Ac]Ac-DOTA-TATE ([3]; Dextran 6% w/w, 0 hour, 100 mM sodium ascorbate, 0.05 mg/ml DTPA, saline, pH 5.80, 25° C.): 100%
- Percentage of ^225Ac present in [^225Ac]Ac-DOTA-TATE ([3]; Dextran 6% w/w, 24 hours, 100 mM sodium ascorbate, 0.05 mg/ml DTPA, saline, pH 5.80, 25° C.): 99.08%
- Percentage of ^225Ac present in [^225Ac]Ac-DOTA-TATE ([3]; Dextran 6% w/w, 48 hours, 100 mM sodium ascorbate, 0.05 mg/ml DTPA, saline, pH 5.80, 25° C.): 98.83%
- Percentage of ^225Ac present in [^225Ac]Ac-DOTA-TATE ([3]; Dextran 6% w/w, 72 hours, 100 mM sodium ascorbate, 0.05 mg/ml DTPA, saline, pH 5.80, 25° C.): 98.29%
- Percentage of ^225Ac present in [^225Ac]Ac-DOTA-TATE ([3]; Dextran 6% w/w, 96 hours, 100 mM sodium ascorbate, 0.05 mg/ml DTPA, saline, pH 5.80, 25° C.): 96.99%
- Percentage of ^225Ac present in [^225Ac]Ac-DOTA-TATE ([3]; Dextran 6% w/w, 120 hours, 100 mM sodium ascorbate, 0.05 mg/ml DTPA, saline, pH 5.80, 25° C.): 97.00%
- Percentage of ^225Ac present in [^225Ac]Ac-DOTA-TATE ([3]; Dextran 6% w/w, 144 hours, 100 mM sodium ascorbate, 0.05 mg/ml DTPA, saline, pH 5.80, 25° C.): 96.41%
- Percentage of ^225Ac present in [^225Ac]Ac-DOTA-TATE ([3]; Dextran 10% w/w, no L-ascorbate, 0 hour, 25° C.): 100%
- Percentage of ^225Ac present in [^225Ac]Ac-DOTA-TATE ([3]; Dextran 10% w/w, no L-ascorbate, 24 hours, 25° C.): 95.38%
- Percentage of ^225Ac present in [^225Ac]Ac-DOTA-TATE ([3]; Dextran 10% w/w, no L-ascorbate, 48 hours, 25° C.): 93.36%
- Percentage of ^225Ac present in [^225Ac]Ac-DOTA-TATE ([3]; Dextran 10% w/w, no L-ascorbate, 72 hours, 25° C.): 89.11%
- Percentage of ^225Ac present in [^225Ac]Ac-DOTA-TATE ([3]; Dextran 10% w/w, no L-ascorbate, 96 hours, 25° C.): 87.20%

From patent US11819556B2, “Stabilized compositions of radionuclides and uses thereof” (RayzeBio, Inc., priority 2021, dated 2023)
